# Measurements taken from patent publication US20140105889A1 (published 2014).
# Positions count from the first letter of the chain named. Names may count otherwise. Where two headings read alike, the source gives them in different places.
# B1: VH3/L(WT)-IgG1-F21 (antibody)
# heavy: QVQLQESGPGLVKPSETLSLTCAVSGHSISHDHAWSWVRQPPGEGLEWIGFISYSGITNYNPSLQGRVTISRDNSKNTLYLQMNSLRAEDTAVYYCARSLARTTAMDYWGEGTLVTVSSASTKGPSVFPLAPSSKSTSGGTAALGCLVKDYFPEPVTVSWNSGALTSGVHTFPAVLQSSGLYSLSSVVTVPSSSLGTQTYICNVNHKPSNTKVDKKVEPKSCDKTHTCPPCPAPELLGGPSVFLFPPKPKDTLYISRTPEVTCVVVDVSHEDPEVKFNWYVDGVEVHNAKTKPREEQYNSTYRVVSVLTPLHQDWLNGKEYKCKVSNKALPAPIEKTISKAKGQPREPQVYTLPPSRDELTKNQVSLTCLVKGFYPSDIAVEWESNGQPENNYKTTPPVLDSDGSFFLYSKLTVDKSRWQQGNVFSCSVMHEALHYHYTQKSLSLSP
# light: not shown
# notes: copies: 2 + 2
# B2: GpH7-B3 D270W / GpL16-k0 (antibody, human IgG1)
# heavy: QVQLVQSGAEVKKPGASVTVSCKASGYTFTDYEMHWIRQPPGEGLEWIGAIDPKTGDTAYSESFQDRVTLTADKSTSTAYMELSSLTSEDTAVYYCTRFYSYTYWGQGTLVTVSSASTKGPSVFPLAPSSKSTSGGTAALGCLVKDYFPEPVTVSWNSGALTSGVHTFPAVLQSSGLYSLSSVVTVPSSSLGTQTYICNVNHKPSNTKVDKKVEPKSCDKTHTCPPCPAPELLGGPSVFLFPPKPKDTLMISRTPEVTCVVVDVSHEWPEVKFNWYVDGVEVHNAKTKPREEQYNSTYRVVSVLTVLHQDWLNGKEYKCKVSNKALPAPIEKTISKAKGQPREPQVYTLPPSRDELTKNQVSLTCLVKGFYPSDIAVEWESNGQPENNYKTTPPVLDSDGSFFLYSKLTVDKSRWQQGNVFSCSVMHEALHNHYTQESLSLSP
# light: DIVMTQSPLSLPVTPGEPASISCQASESLVHSNRNTYLHWYLQKPGQSPQLLIYKVSNRFSGVPDRFSGSGSGTDFTLKISRVEAEDVGVYYCSQNTHVPPTFGQGTKVEIE
# notes: B3 variant: anti-glypican-3 IgG1 (constant region B3 = G1d with K439E) with one substitution, EU numbering; also called B3 variant D270W; copies: 2 + 2
# B3: IgG1-F79 (antibody, name in EU numbering)
# heavy: B1 heavy with Y254M, S256T, T258E, P310V, Y436A
# light: not shown
# notes: VH3-IgG1 Fc variant; EU numbering
# B4: IgG1-F207 (antibody, name in EU numbering)
# heavy: B1 heavy with T309K, P310V
# light: not shown
# notes: as for B3
# B5: IgG1-F722 (antibody)
# heavy: B1 heavy with P240D, P310V, A329G
# light: not shown
# notes: Substitutions by EU numbering; copies: 2 + 2
# B6: F1113 (antibody, name in EU numbering)
# heavy: B1 heavy with P310V, Y438V, S442D
# light: not shown
# notes: copies: 2 + 2
# B7: IL6R-BP084/IL6R-L (antibody, human IgG1)
# heavy: B1 heavy with P240D, Y254M, P310V, V325M, A332K, Y436N, K441E
# light: DIQMTQSPSSLSASVGDRVTITCRASQDISSYLNWYQQKPGKAPKLLIYYTSRLHSGVPSRFSGSGSGTDFTFTISSLQPEDIATYYCQQGNTLPYTFGQGTKVEIK
# notes: copies: 2 + 2
# Assays:
# [1] = molecular target: T1, mouse FcγRIV (mouse); assay: SPR (Biacore), antibody captured on Protein L, mouse FcγR as analyte, pH 7.4, 25 C
# T1 construct: Bought soluble receptor; also called mFcgRIV; mFcgR IV
# [2] = molecular target: T2, human FcγRIIIa(F) (human, UniProt P08637 17-208, limits assumed); assay: SPR (Biacore), antibody captured on Protein L, human FcγR as analyte, pH 7.4, 25 C
# T2 construct: also called hFcgRIIIa(F); hFcgRIIIa
# [3] = molecular target: T3, human FcγRIIb (human, UniProt P31994 43-217, limits assumed); assay: SPR (Biacore), antibody captured, FcγR as analyte
# T3 construct: also called FcgRIIb; FcγIIB
# T3 sequence: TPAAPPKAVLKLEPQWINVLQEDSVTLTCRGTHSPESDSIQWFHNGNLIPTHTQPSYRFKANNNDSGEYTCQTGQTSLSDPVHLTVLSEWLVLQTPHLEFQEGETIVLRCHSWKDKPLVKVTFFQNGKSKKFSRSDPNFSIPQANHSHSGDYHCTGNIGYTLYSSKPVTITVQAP
# [4] = molecular target: T4, human FcRn (soluble human FcRn complexed with β2-microglobulin) (human, UniProt P61769 21-119); assay: Biacore SPR, pH 7.0, 25 C; antibody captured by Protein L, human FcRn as analyte
# T4 construct: also called hFcRn
# [5] = molecular target: T4, human FcRn (soluble human FcRn …); assay: as above; remark: listed apart in the source
# [6] = molecular target: T5, human FcRn (human); assay: SPR (Biacore), pH 7.0, 25 C; antibody captured on Protein L, human FcRn injected
# T5 construct: Soluble human FcRn complexed with beta2-microglobulin; also called hFcRn; soluble human FcRn complexed with β2-microglobulin
# [7] = molecular target: T6, human FcRn (human); assay: SPR (Biacore), pH 7.0, 25 C, antibody captured by Protein L, human FcRn as analyte
# T6 construct: also called hFcRn; soluble human FcRn complexed with β2-microglobulin
# [8] = molecular target: T7, human FcγRIIb (human, UniProt P31994 43-217, limits assumed); assay: SPR KD for FcγRIIb of parent IL6R-B3/IL6R-L divided by that of this variant
# T7 construct: also called FcγIIB; hFcgRIIb
# T7 sequence: T3 sequence
# [9] = molecular target: T7, human FcγRIIb; assay: ratio of this variant's SPR KD for FcγRIIaR to its KD for FcγRIIb
# [10] = molecular target: T8, human FcγRIIa type H (human, UniProt P12318 36-217); assay: SPR (Biacore), captured antibody, FcγR as analyte, 25 C
# T8 construct: also called FcγRIIaH; FcγRIIa(H)
# T8 sequence: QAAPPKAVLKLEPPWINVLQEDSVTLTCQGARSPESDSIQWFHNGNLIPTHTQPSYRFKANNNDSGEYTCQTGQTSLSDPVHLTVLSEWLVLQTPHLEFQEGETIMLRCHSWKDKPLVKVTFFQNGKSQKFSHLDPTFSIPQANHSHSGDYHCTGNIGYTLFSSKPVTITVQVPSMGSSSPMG
# [11] = molecular target: T7, human FcγRIIb; assay: ratio of this variant's SPR KD for FcγRIIaH to its KD for FcγRIIb
# T4 sequence (chain, as listed by the source limits assumed, chain 1 of 2): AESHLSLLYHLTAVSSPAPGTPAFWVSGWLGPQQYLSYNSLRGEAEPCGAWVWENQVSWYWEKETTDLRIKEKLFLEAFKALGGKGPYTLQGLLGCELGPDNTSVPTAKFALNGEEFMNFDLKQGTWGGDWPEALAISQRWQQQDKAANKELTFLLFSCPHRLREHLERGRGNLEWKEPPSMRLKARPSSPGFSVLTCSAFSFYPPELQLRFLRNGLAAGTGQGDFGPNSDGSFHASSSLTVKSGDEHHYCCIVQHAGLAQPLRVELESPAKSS
# T4 sequence (P61769 21-119 limits assumed, chain 2 of 2): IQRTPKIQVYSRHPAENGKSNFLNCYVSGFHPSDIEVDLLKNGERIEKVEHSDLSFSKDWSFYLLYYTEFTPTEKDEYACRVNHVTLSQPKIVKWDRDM
# T2 sequence (P08637 other isoform, or with tags, fused parts or gaps limits assumed): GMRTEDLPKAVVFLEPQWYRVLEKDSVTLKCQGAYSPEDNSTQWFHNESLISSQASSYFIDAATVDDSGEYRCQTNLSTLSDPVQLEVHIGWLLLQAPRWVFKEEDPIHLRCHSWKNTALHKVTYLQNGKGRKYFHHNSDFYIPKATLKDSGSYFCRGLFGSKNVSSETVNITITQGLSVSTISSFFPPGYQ
# T1 sequence (A0A0B4J1G0 21-203): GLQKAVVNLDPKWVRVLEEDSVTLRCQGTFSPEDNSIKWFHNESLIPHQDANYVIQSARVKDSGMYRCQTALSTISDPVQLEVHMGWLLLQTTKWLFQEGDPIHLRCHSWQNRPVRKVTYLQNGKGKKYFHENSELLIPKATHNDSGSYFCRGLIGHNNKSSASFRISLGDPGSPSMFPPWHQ
binder,measurement,setting,value
B1,BINDING AMOUNT (RU),[1],242 RU
same,BINDING AMOUNT (RU),[2],147 RU
B2,relative binding activity (amount bound / amount bound by GpH7-B3/GpL16-k0 x100),[3],-2 % of GpH7-B3/GpL16-k0
B3,Kd,[4],5900 nM
B4,Kd,[5],940 nM
B5,Kd,[6],270 nM
B6,Kd,[7],118 nM
B7,KD(IIb) of the parent polypeptide/KD(IIb) of the altered polypeptide,[8],5.1
same,KD (IIaR)/KD (IIb),[9],14.3
same,Kd,[10],2400 nM
same,KD (IIaH)/KD (IIb),[11],47.6
